The values below come from US6967029 (Amgen, dated 2005).

The target of the assay is T1, human SCF receptor, native, on cell membranes (human, UniProt P10721 26-976).
T1 construct: whole, on cells; also called human SCF receptors on OCIM1 cells (isolated OCIM1 plasma membrane); SCF receptors on leukemic blasts
Kind of assay: radioreceptor assay: competition with 125I-huSCF on OCIM1 plasma membrane.

Description: The SCF radioreceptor assay was conducted as follows with all steps being performed on ice. […] A dilution of isolated OCIM1 plasma membrane in 50 ul buffer known to give 20% specific binding was then added to each tube. Tubes were vortexed and allowed to incubate for 24 hrs at 4° C. […] All tubes were oriented with lid opening tabs straight up. Supernatants were carefully aspirated by a sliding a 21 gauge needle down the side opposite the pellet (hinge side of tube) to bottom of each tube. Tubes were counted in gamma counter for 1 min. each.

B1: E. coli derived human SCF^1-130 analog (ligand)
chain: EGICRNRVTNNVKDVTKLVANLPKDYMITLKYVPGMDVLPSHCWISEMVVQLSDSLTDLLDKFSNISEGLSNYSIIDKLVNIVDDLVECVKENSSKDLKKSFKSPEPRLFTPEEFFRIFNRSIDAFKDFV
notes: Plasmid encodes an initiating methionine before residue 1; Dimeric in solution by gel filtration
Regarding B1, the “specific activity in the radioreceptor assay relative to SCF^1-164” value was ~50 % of the value for SCF^1-164.
